Target: SNARE complex including SNAP-25, syntaxin and VAMP2 (endogenous, in PC12 cells) (rat (PC12 cells, derived from rats), UniProt P60881 1-206; P32851 1-288; P63045 2-116)
Test: cell-based or functional assay

Chain of SNARE complex including SNAP-25, syntaxin and VAMP2 (endogenous, in PC12 cells) (P60881 whole entry, chain 1 of 3): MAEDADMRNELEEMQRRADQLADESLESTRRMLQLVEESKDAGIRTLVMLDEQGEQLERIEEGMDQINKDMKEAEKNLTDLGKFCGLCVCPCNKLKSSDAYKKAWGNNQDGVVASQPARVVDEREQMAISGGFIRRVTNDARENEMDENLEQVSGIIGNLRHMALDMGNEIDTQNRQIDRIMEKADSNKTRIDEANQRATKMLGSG
Chain of SNARE complex including SNAP-25, syntaxin and VAMP2 (endogenous, in PC12 cells) (P32851 whole entry, chain 2 of 3): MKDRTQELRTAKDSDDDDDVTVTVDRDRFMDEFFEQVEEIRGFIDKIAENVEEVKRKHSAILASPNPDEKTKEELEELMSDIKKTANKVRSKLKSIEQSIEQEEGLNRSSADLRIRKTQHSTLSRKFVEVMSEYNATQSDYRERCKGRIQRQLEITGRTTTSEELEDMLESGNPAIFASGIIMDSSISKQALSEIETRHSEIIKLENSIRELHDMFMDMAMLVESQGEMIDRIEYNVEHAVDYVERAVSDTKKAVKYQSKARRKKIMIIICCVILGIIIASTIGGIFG
Chain of SNARE complex including SNAP-25, syntaxin and VAMP2 (endogenous, in PC12 cells) (P63045 2-116, chain 3 of 3): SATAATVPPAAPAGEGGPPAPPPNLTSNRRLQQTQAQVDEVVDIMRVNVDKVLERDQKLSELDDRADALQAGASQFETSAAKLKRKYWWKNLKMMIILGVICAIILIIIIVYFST

Binder	neurotransmitter (norepinephrine) secretion rate in PC12 cells compared to an untreated group, peptide at 20 µM [%]
RRWRRWNRFNRRRCRRRLQQTQAQVDEVV	56
RRLQQTQAQVDEVVDIM [P4 peptide, h-VAMP2 (30-46 aa)]	75
